Reference: patent publication US20230075095A1 (University of Washington, published 2023)
Where a chain is given by its changes, count along the chain named. Numbers in names are those of the source.

B1: I3-01 H35D (designed binder)
chain: YKDEKMEELFKKHKIVAVLRANSVEEAKKKALAVFLGGVDLIEITFTVPDADTVIKELSFLKEMGAIIGAGTVTSVEQCRKAVESGAEFIVSPHLDEEISQFCKEKGVFYMPGVMTPTELVKAMKLGHTILKLFPGEVVGPQFVKAMKGPFPNVKFVPTGGVNLDNVCEWFKAGVLAVGVGSALVKGTPVEVAEKAKAFVEKIRGCTEQKLISEEDLHHHHHH
notes: One-component (homomeric) icosahedral nanoparticle secreted from HEK293F cells; also called H35D variant; degreased I3-01 construct
B2: I3-01 'secretion mutations' (H35D/L171Q/S177E/V180N) (designed binder)
chain: B1 chain with L176Q, S182E, V185N
notes: One-component (homomeric) icosahedral nanoparticle secreted from HEK293F cells; also called H35D/L171Q/S177E/V180N quadruple mutant

Biological target: the molecule itself
Assay: negative-stain TEM, homomeric self-assembly
Experimental: FIG. 2(a-b). Transmission electron micrographs of degreased I3-01 constructs. […] Images taken at 22,000× magnification.
Samples were prepared for negative stain EM by diluting to 0.05-0.075 mg/mL using a Tris-based buffer, and 6.0 μL was incubated on a glow-discharged, copper, carbon-coated grid for 1 min before quickly immersing the grid in a 60 μL drop of water. The water was blotted off within seconds by Whatman™ No. 1 filter paper, and the grid was immediately dipped into a 6.0 μL drop of stain (2% w/v uranyl formate). The stain was immediately blotted away and within seconds the grid was dipped into another 6.0 μL drop of stain, which was left on the grid for 30 seconds. At the end of this time, the stain was blotted dry and allowed to air dry for 5 minutes prior to imaging. Images were recorded on a FEI Morgagni 268 transmission electron microscope equipped with a Gatan US4000 CCD camera, using Leginon™ software for data collection at a nominal magnification of 22,000× at a defocus range comprised between −1 um and −4 um.

Row | Protein | binding result
1 | B1 | binds
2 | B2 | binds
